Measurements as given in article PMC7549369.

Experiments:
[1] = target: SipL-3×FLAG (Clostridioides difficile) (UniProt Q181G7); assay: co-IP; SipL-3×FLAG immunoprecipitated with anti-FLAG magnetic beads from cleared lysates of sporulating C. difficile (22 h in the legend, 24 h in the methods), eluted with FLAG peptide; untagged SpoIVA detected by Western blot; SpoIVA/SipL ratio in the elution set to 1 for WT
[2] = target: SipL (bacterial two-hybrid fusion from pKNT25-sipL) (Clostridioides difficile) (UniProt Q181G7); assay: two-hybrid; bacterial adenylate cyclase two-hybrid (BACTH) in E. coli BTH101; pKNT25-sipL with pUT18C-spoIVA variants; plates with 0.5 mM IPTG, 40 h at 30°C; β-galactosidase activity in Miller units

SpoIVA D102A, untagged, in sporulating C. difficile (from UniProt Q182W3 1-491) (natural protein)
fold more coimmunoprecipitated with SipL-3×FLAG relative to wild-type SpoIVA [1]: 1.8 fold

SpoIVA K35A (bacterial two-hybrid fusion, pUT18C) (from UniProt Q182W3 1-491) (natural protein)
fold reduction of binding to SipL relative to wild-type SpoIVA (β-galactosidase activity) [2]: 3 fold

SpoIVA K35A, untagged, in sporulating C. difficile (from UniProt Q182W3 1-491) (natural protein)
fold less coimmunoprecipitated with SipL-3×FLAG relative to wild-type SpoIVA [1]: 3 fold

SpoIVA K35E (bacterial two-hybrid fusion, pUT18C) (from UniProt Q182W3 1-491) (natural protein)
fold reduction of binding to SipL relative to wild-type SpoIVA (β-galactosidase activity) [2]: 100 fold

SpoIVA K35E, untagged, in sporulating C. difficile (from UniProt Q182W3 1-491) (natural protein)
fold less coimmunoprecipitated with SipL-3×FLAG relative to wild-type SpoIVA [1]: 10 fold

SpoIVA T75A (bacterial two-hybrid fusion, pUT18C) (from UniProt Q182W3 1-491) (natural protein)
fold increase of binding to SipL relative to WT SpoIVA (β-galactosidase activity) [2]: 2 fold

SpoIVA T75A, untagged, in sporulating C. difficile (from UniProt Q182W3 1-491) (natural protein)
fold more coimmunoprecipitated with SipL-3×FLAG relative to wild-type SpoIVA [1]: 1.5 fold
